Test results reported in patent publication US20190338269.

B1: factor VIIa/tissue factor (TF) complex (protein)
chain 1: ANAFLEELRPGSLERECKEEQCSFEEAREIFKDAERTKLFWISYSDGDQCASSPCQNGGSCKDQLQSYICFCLPAFEGRNCETHKDDQLICVNENGGCEQYCSDHTGTKRSCRCHEGYSLLADGVSCTPTVEYPCGKIPILEKRNASKPQGRIVGGKVCPKGECPWQVLLLVNGAQLCGGTLINTIWVVSAAHCFDKIKNWRNLIAVLGEHDLSEHDGDEQSRRVAQVIIPSTYVPGTTNHDIALLRLHQPVVLTDHVVPLCLPERTFSERTLAFVRFSLVSGWGQLLDRGATALELMVLNVPRLMTQDCLQQSRKVGDSPNITEYMFCAGYSDGSKDSCKGDSGGPHATHYRGTWYLTGIVSWGQGCATVGHFGVYTRVSQYIEWLQKLMRSEPRPGVLLRAPFP
chain 2: SGTTNTVAAYNLTWKSTNFKTILEWEPKPVNQVYTVQISTKSGDWKSKCFYTTDTECDLTDEIVKDVKQTYLARVFSYPAGNVESTGSAGEPLYENSPEFTPYLETNLGQPTIQSFEQVGTKVNVTVEDERTLVRRNNTFLSLRDVFGKDLIYTLYYWKSSSSGKKTAKTNTNEFLIDVDKGENYCFSVQAVIPSRTVNRKSTDSPVECMGQEKGEFREIFYIIGAVVFVVIILVIILAISLHKCRKAGVGQSWKENSPLNVS

Legend:
plasma factor X = plasma factor X (UniProt P00742)
Chain of plasma factor X (P00742 whole entry, looked up): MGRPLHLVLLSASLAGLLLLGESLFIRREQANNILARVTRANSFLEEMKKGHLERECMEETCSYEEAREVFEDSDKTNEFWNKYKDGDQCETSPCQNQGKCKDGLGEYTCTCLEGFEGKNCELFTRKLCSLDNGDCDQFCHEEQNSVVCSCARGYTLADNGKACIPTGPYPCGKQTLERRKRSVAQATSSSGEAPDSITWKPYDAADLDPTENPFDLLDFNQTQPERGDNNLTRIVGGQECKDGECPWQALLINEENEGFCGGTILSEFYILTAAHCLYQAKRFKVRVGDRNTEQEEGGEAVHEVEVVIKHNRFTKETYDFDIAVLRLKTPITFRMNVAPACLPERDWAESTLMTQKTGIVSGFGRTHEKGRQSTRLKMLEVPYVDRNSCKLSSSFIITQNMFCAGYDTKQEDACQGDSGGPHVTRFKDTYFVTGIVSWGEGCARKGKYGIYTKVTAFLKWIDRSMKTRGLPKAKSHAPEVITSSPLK

Chain of plasma factor X, P00742 (P00742 whole entry, looked up): as above

Row | Molecule | appearance of FXa activity after incubation with thrombin (100 nM FX / 10 nM IIa, up to 8 h) (plasma factor X) | FXa generated after incubation with FVIIa/TF (rate of hydrolysis of PNAPEP substrate) (plasma factor X, P00742)
1 | thrombin | did not result in the appearance of FXa activity | –
2 | B1 | – | the already activated plasma FX and the plasma FX treated with the FVIIa/FT both gave a positive signal of the same order of magnitude
